Laboratory results reported in paper PMC10786891, “Massively parallel profiling of RNA-targeting CRISPR-Cas13d”.

Target: T1, EsCas13d, nuclease-dead (Eubacterium siraeum, UniProt B0MS50, R295A;H300A;R849A;H854A)
T1 sequence: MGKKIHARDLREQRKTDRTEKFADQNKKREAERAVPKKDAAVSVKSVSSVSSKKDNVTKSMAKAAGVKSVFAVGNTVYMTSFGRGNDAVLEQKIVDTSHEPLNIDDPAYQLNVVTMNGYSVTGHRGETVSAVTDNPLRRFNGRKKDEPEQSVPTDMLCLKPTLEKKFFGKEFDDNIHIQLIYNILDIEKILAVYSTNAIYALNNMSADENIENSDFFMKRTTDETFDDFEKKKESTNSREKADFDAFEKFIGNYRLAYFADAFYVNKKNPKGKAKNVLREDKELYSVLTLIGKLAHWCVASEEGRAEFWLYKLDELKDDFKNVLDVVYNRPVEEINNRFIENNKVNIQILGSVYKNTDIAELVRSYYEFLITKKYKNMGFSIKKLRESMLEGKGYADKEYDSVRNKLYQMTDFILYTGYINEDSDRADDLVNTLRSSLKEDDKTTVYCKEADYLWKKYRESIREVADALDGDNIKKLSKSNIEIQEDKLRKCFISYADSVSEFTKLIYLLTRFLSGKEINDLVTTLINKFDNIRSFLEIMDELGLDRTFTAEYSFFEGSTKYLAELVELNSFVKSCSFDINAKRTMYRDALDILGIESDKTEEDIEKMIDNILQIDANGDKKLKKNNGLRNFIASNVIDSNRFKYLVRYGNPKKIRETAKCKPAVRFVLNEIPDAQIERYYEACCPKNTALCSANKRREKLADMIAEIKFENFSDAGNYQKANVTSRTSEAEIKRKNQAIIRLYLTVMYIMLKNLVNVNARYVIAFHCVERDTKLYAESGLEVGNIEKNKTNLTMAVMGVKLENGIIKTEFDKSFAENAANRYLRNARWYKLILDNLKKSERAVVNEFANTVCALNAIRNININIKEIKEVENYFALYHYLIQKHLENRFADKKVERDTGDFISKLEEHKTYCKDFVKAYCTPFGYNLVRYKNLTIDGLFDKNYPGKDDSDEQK
Test: crRNA (strand 1, pre-loaded); Mg2+; 40 mM Tris-HCl pH 7.5, 150 mM NaCl, 6 mM MgCl2, 1 mM DTT, 0.1% Tween-20, 0.2 mg/ml BSA; 25 C; 10 min per concentration, then washed
Settings: tags: His6-TwinStrep-SUMO cleaved; N-terminal SNAP kept (SNAP-Surface 488); label: 3' end held by stalled T7 RNA polymerase

B1: target 1 MT 5'PFS GUA 3'PFS AAA (mixed)
RNA 1: CACCCGUGCAAAAAUGCAGGGGUCUAAAACUGAGCGGAUAACCUCUCUAUGG
RNA 2: GGGAAUGGAUCCACAUCUACGAAUUCGUACCAUAGAGAGGUUAUCCGCUCAAAAAGAUCGGAAGAGCACACGU
B1 was tested, and the Kd was 26.4 ± 3.45 nM.

B2: target 1 MT 5'PFS AAA 3'PFS UCU (mixed)
RNA 1: CACCCGUGCAAAAAUGCAGGGGUCUAAAACUGAGCGGAUAACCUCUCUAUGG
RNA 2: GGGAAUGGAUCCACAUCUACGAAUUCAAACCAUAGAGAGGUUAUCCGCUCAUCUAGAUCGGAAGAGCACACGU
Work on B2 yielded a Kd of 25 ± 5.5 nM.

B3: target 1 MT 5'PFS GCG 3'PFS CUG (mixed)
RNA 1: CACCCGUGCAAAAAUGCAGGGGUCUAAAACUGAGCGGAUAACCUCUCUAUGG
RNA 2: GGGAAUGGAUCCACAUCUACGAAUUCGCGCCAUAGAGAGGUUAUCCGCUCACUGAGAUCGGAAGAGCACACGU
B3 gave a Kd of 10.7 ± 1.8 nM.

B4: target 1 MT 5'PFS CAC 3'PFS CCG (mixed)
RNA 1: CACCCGUGCAAAAAUGCAGGGGUCUAAAACUGAGCGGAUAACCUCUCUAUGG
RNA 2: GGGAAUGGAUCCACAUCUACGAAUUCCACCCAUAGAGAGGUUAUCCGCUCACCGAGAUCGGAAGAGCACACGU
With B4 the Kd was 9.7 ± 2.45 nM.

B5: target 1 MT 5'PFS GGU 3'PFS UCU (mixed)
RNA 1: CACCCGUGCAAAAAUGCAGGGGUCUAAAACUGAGCGGAUAACCUCUCUAUGG
RNA 2: GGGAAUGGAUCCACAUCUACGAAUUCGGUCCAUAGAGAGGUUAUCCGCUCAUCUAGAUCGGAAGAGCACACGU
With B5 the Kd was 34 ± 8.5 nM.

B6: target 1 MT 5'PFS UAU 3'PFS UUA (mixed)
RNA 1: CACCCGUGCAAAAAUGCAGGGGUCUAAAACUGAGCGGAUAACCUCUCUAUGG
RNA 2: GGGAAUGGAUCCACAUCUACGAAUUCUAUCCAUAGAGAGGUUAUCCGCUCAUUAAGAUCGGAAGAGCACACGU
B6 gave a Kd of 18.1 ± 3.15 nM.

B7: target 1 C6G,U8A (mixed)
RNA 1: CACCCGUGCAAAAAUGCAGGGGUCUAAAACUGAGCGGAUAACCUCUCUAUGG
RNA 2: GGGAAUGGAUCCACAUCUACGAAUUCGUACCAUAGAGAGGUUAACGGCUCACCGAGAUCGGAAGAGCACACGU
Binder B7 has a Kd of 13.8 ± 0.6 nM.

B8: target 1 MT 5'PFS GCG 3'PFS CUU (mixed)
RNA 1: CACCCGUGCAAAAAUGCAGGGGUCUAAAACUGAGCGGAUAACCUCUCUAUGG
RNA 2: GGGAAUGGAUCCACAUCUACGAAUUCGCGCCAUAGAGAGGUUAUCCGCUCACUUAGAUCGGAAGAGCACACGU
Work on B8 yielded a Kd of 15.6 ± 3.75 nM.

B9: target 1 MT 5'PFS GAC 3'PFS CCG (mixed)
RNA 1: CACCCGUGCAAAAAUGCAGGGGUCUAAAACUGAGCGGAUAACCUCUCUAUGG
RNA 2: GGGAAUGGAUCCACAUCUACGAAUUCGACCCAUAGAGAGGUUAUCCGCUCACCGAGAUCGGAAGAGCACACGU
With B9 the Kd was 13.8 ± 3 nM.

B10: target 1 MT 5'PFS GCG 3'PFS CUC (mixed)
RNA 1: CACCCGUGCAAAAAUGCAGGGGUCUAAAACUGAGCGGAUAACCUCUCUAUGG
RNA 2: GGGAAUGGAUCCACAUCUACGAAUUCGCGCCAUAGAGAGGUUAUCCGCUCACUCAGAUCGGAAGAGCACACGU
With B10 the Kd was ~43 nM.

B11: target 1 MT 5'PFS UAC 3'PFS CCG (mixed)
RNA 1: CACCCGUGCAAAAAUGCAGGGGUCUAAAACUGAGCGGAUAACCUCUCUAUGG
RNA 2: GGGAAUGGAUCCACAUCUACGAAUUCUACCCAUAGAGAGGUUAUCCGCUCACCGAGAUCGGAAGAGCACACGU
Binder B11 has a Kd of 14.5 ± 6 nM.

B12: target 1 insA 3' of 13,insU 3' of 7 (mixed)
RNA 1: CACCCGUGCAAAAAUGCAGGGGUCUAAAACUGAGCGGAUAACCUCUCUAUGG
RNA 2: GGGAAUGGAUCCACAUCUACGAAUUCGUACCAUAGAGAGAGUUAUCUCGCUCACCGAGAUCGGAAGAGCACACGU
For B12, the Kd was 11.2 ± 0.8 nM.

B13: target 1 MT 5'PFS UCC 3'PFS AGA (mixed)
RNA 1: CACCCGUGCAAAAAUGCAGGGGUCUAAAACUGAGCGGAUAACCUCUCUAUGG
RNA 2: GGGAAUGGAUCCACAUCUACGAAUUCUCCCCAUAGAGAGGUUAUCCGCUCAAGAAGAUCGGAAGAGCACACGU
Work on B13 yielded a Kd of ~60 nM.

B14: target 1 MT 5'PFS GUA 3'PFS AAU (mixed)
RNA 1: CACCCGUGCAAAAAUGCAGGGGUCUAAAACUGAGCGGAUAACCUCUCUAUGG
RNA 2: GGGAAUGGAUCCACAUCUACGAAUUCGUACCAUAGAGAGGUUAUCCGCUCAAAUAGAUCGGAAGAGCACACGU
In the case of B14, the Kd is reported as 17.8 ± 1.5 nM.

B15: target 1 MT 5'PFS GCG 3'PFS CUA (mixed)
RNA 1: CACCCGUGCAAAAAUGCAGGGGUCUAAAACUGAGCGGAUAACCUCUCUAUGG
RNA 2: GGGAAUGGAUCCACAUCUACGAAUUCGCGCCAUAGAGAGGUUAUCCGCUCACUAAGAUCGGAAGAGCACACGU
In the case of B15, the Kd is reported as 15.7 ± 3.15 nM.

B16: target 1 MT 5'PFS GGA 3'PFS AGG (mixed)
RNA 1: CACCCGUGCAAAAAUGCAGGGGUCUAAAACUGAGCGGAUAACCUCUCUAUGG
RNA 2: GGGAAUGGAUCCACAUCUACGAAUUCGGACCAUAGAGAGGUUAUCCGCUCAAGGAGAUCGGAAGAGCACACGU
For B16, the Kd was 31 ± 4.5 nM.

B17: target 1 MT 5'PFS UAU 3'PFS UUU (mixed)
RNA 1: CACCCGUGCAAAAAUGCAGGGGUCUAAAACUGAGCGGAUAACCUCUCUAUGG
RNA 2: GGGAAUGGAUCCACAUCUACGAAUUCUAUCCAUAGAGAGGUUAUCCGCUCAUUUAGAUCGGAAGAGCACACGU
B17 gave a Kd of 31 ± 7.5 nM.

B18: target 1 MT 5'PFS GGC 3'PFS GCU (mixed)
RNA 1: CACCCGUGCAAAAAUGCAGGGGUCUAAAACUGAGCGGAUAACCUCUCUAUGG
RNA 2: GGGAAUGGAUCCACAUCUACGAAUUCGGCCCAUAGAGAGGUUAUCCGCUCAGCUAGAUCGGAAGAGCACACGU
B18 was tested, and the Kd was 7.25 ± 1.75 nM.

B19: target 1 MT 5'PFS AAA 3'PFS UCG (mixed)
RNA 1: CACCCGUGCAAAAAUGCAGGGGUCUAAAACUGAGCGGAUAACCUCUCUAUGG
RNA 2: GGGAAUGGAUCCACAUCUACGAAUUCAAACCAUAGAGAGGUUAUCCGCUCAUCGAGAUCGGAAGAGCACACGU
In the case of B19, the Kd is reported as 15.2 ± 3.7 nM.

B20: target 1 MT 5'PFS UGU 3'PFS CAA (mixed)
RNA 1: CACCCGUGCAAAAAUGCAGGGGUCUAAAACUGAGCGGAUAACCUCUCUAUGG
RNA 2: GGGAAUGGAUCCACAUCUACGAAUUCUGUCCAUAGAGAGGUUAUCCGCUCACAAAGAUCGGAAGAGCACACGU
With B20 the Kd was ~90 nM.

B21: target 1 MT 5'PFS UUA 3'PFS UUA (mixed)
RNA 1: CACCCGUGCAAAAAUGCAGGGGUCUAAAACUGAGCGGAUAACCUCUCUAUGG
RNA 2: GGGAAUGGAUCCACAUCUACGAAUUCUUACCAUAGAGAGGUUAUCCGCUCAUUAAGAUCGGAAGAGCACACGU
B21 gave a Kd of 30.5 ± 5 nM.

B22: target 1 MT 5'PFS ACU 3'PFS UUG (mixed)
RNA 1: CACCCGUGCAAAAAUGCAGGGGUCUAAAACUGAGCGGAUAACCUCUCUAUGG
RNA 2: GGGAAUGGAUCCACAUCUACGAAUUCACUCCAUAGAGAGGUUAUCCGCUCAUUGAGAUCGGAAGAGCACACGU
B22 gave a Kd of 46 ± 15 nM.

B23: target 1 MT 5'PFS ACU 3'PFS UUA (mixed)
RNA 1: CACCCGUGCAAAAAUGCAGGGGUCUAAAACUGAGCGGAUAACCUCUCUAUGG
RNA 2: GGGAAUGGAUCCACAUCUACGAAUUCACUCCAUAGAGAGGUUAUCCGCUCAUUAAGAUCGGAAGAGCACACGU
Work on B23 yielded a Kd of 52.5 ± 21 nM.

B24: target 1 MT 5'PFS UAU 3'PFS UUC (mixed)
RNA 1: CACCCGUGCAAAAAUGCAGGGGUCUAAAACUGAGCGGAUAACCUCUCUAUGG
RNA 2: GGGAAUGGAUCCACAUCUACGAAUUCUAUCCAUAGAGAGGUUAUCCGCUCAUUCAGAUCGGAAGAGCACACGU
For B24, the Kd was 22.5 ± 6 nM.
